From the supplement of paper PMC9732359
± gives the uncertainty stated by the source.

Experiment: protein stability index of a GFP-peptide fusion (yeast GPS) (PSI 1-4); higher = more stable; sorted into four equal gates, so the index is relative within each strain
Outline: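 Yeast carrying a pooled library were grown to mid-log phase in leucine-free medium. Each library plasmid expresses Cherry and has a tiled 17-residue yeast protein peptide fused downstream of GFP. Cells were sorted into four equal gates by GFP/Cherry ratio, and plasmids from each gate were PCR-amplified, Illumina-sequenced and assigned to strains by barcode. Summing, across gates, the read frequency times the gate number gave each peptide's protein stability index.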

Sequence	protein stability index (doa10∆)	protein stability index (pdr5∆)	protein stability index (san1∆)	protein stability index (ubr1∆)
LFPIVKKHGKTDYFLPK [YJL039C/NUP192]	2.46 ± 0.2	2.66 ± 0.11	2.58 ± 0.15	2.08 ± 0.062
TKAQQKTAEQIAAERAA [RPL7B]	2.81 ± 0.17		3.07 ± 0.13	
GVIIKVEESGEHVILGN [SNU114]	2.65 ± 0.12	2.81 ± 0.086	3.2 ± 0.14	3 ± 0.073
VKESNNYYSNKSNSTGN [REC8]	2.44 ± 0.067	2.71 ± 0.085	2.56 ± 0.07	2.97 ± 0.046
VFESLEINNLIQLPASL [ARP9]	1.61 ± 0.08	1.88 ± 0.05	1.83 ± 0.077	1.6 ± 0.055
TLKNRGLPLGIAEEKMW [YGR119C/NUP57]	1.8 ± 0.078	1.7 ± 0.078	1.44 ± 0.29	1.89 ± 0.039
NVFVILMDKCLPKVRIR [DIS3]	2.96 ± 0.088	1.87 ± 0.05	1.87 ± 0.07	1.65 ± 0.047
FVDDMLRDYRFEDATRE [SNF5]	2.92 ± 0.096	3 ± 0.095	3.19 ± 0.082	3.35 ± 0.046
PGAKPLQVGDVVSTTAV [FAS1]	2.51 ± 0.075	2.42 ± 0.086	2.48 ± 0.077	2.66 ± 0.065
ITHQLNNKFANKIIPNV [RPC25]	2.72 ± 0.069	3.03 ± 0.08	2.93 ± 0.053	3.01 ± 0.082
KHHQLFYMLNAGIRPKF [RPN1]	2.23 ± 0.17	2.04 ± 0.085	1.7 ± 0.082	1.98 ± 0.1
NQSFIQQKANLLSSSNF [COR1]	2.17 ± 0.067	1.91 ± 0.069	2.04 ± 0.083	1.76 ± 0.042
KEELLRDGVLTVTLNKN [RRP45]	1.78 ± 0.054	2.11 ± 0.06	2.21 ± 0.084	2.06 ± 0.048
KSLEVVNADTVGKTVKQ [NSL1]	3.13 ± 0.059	2.99 ± 0.049	2.77 ± 0.051	3.08 ± 0.047
VTIASEIYYDPDPRSTV [RPO21]	2.41 ± 0.14	2.86 ± 0.14		2.52 ± 0.11
NFKSYRGVTKVGFGESN [SMC1]	3.03 ± 0.096	2.89 ± 0.13	2.53 ± 0.15	2.72 ± 0.11
KDIRSTLASLIRYNSVE [RPC82]	2.67 ± 0.14	2.13 ± 0.086	2.67 ± 0.12	2.45 ± 0.11
RQQYYSGVQVGGVGSMG [SNF6]	2.08 ± 0.068	2.44 ± 0.11	2.19 ± 0.094	2.24 ± 0.056
EIVDTYQEDIFVSESPS [ISW2]	2.83 ± 0.093	2.8 ± 0.11	3.35 ± 0.092	2.6 ± 0.07
VVKASELDQFWQEYSSV [SRP14]	3.04 ± 0.061	2.9 ± 0.071	3.14 ± 0.072	3.27 ± 0.048
PKFDVGALMALHGEGSG [RPS1A]	2.01 ± 0.17	2.26 ± 0.092	2.23 ± 0.16	1.57 ± 0.089
ESLKNLNESRSQHKKIL [SMC3]	2.78 ± 0.13	3.05 ± 0.098	2.85 ± 0.1	3.04 ± 0.096
ERGFACIPLVGISVPFH [FAS1]	1.34 ± 0.06	1.32 ± 0.07	1.22 ± 0.12	1.21 ± 0.061
SRQVQKRPRSRTLTAVH [RPS7A]	2.54 ± 0.035	2.33 ± 0.034	2.41 ± 0.037	2.03 ± 0.032
LFKGTGFNSWEGLFWEK [PRP8]	2.44 ± 0.12	2.42 ± 0.13	3.36 ± 0.13	1.64 ± 0.04
ERSKQLNEKFQELRKKV [SMC2]		2.78 ± 0.24	3.33 ± 0.097	2.81 ± 0.15
QMQQQQQAQAQAQAQAQ [GAL11]	2.1 ± 0.074	2.08 ± 0.053	2.19 ± 0.059	1.97 ± 0.057

Sequence	protein stability index (doa10∆)	protein stability index (pdr5∆)	protein stability index (san1∆)	protein stability index (ubr1∆)
SMILEAISTDKINPFGF [RRI2]	2.85 ± 0.076	3.01 ± 0.12	2.59 ± 0.12	2.92 ± 0.083
TLSPNVTDSSLLKLLTR [GRR1]	2.89 ± 0.062	2.99 ± 0.07	2.83 ± 0.043	2.82 ± 0.042
SAGRIESNNPSHDASRS [SIR4]	2.85 ± 0.21	2.3 ± 0.11		2.98 ± 0.17
ATSTNPAKSASARGSYL [RPL17A]	2.25 ± 0.033	2.59 ± 0.038	2.53 ± 0.038	2.66 ± 0.029
GKTIVVKDLGQGLKLAK [SMC3]	2.9 ± 0.15	2.92 ± 0.15	2.45 ± 0.16	2.81 ± 0.067
TAFKSSPFGGSSHAKGI [RPS23A]	3.02 ± 0.067	2.61 ± 0.053	3.02 ± 0.048	2.29 ± 0.04
SQLKKTKAQQKTAEQIA [RPL7B]	2.9 ± 0.085	2.92 ± 0.11	2.95 ± 0.067	2.86 ± 0.048
FEQDSHLRYQPDGVVVH [SNF6]	3.09 ± 0.087	3.1 ± 0.078	3.07 ± 0.046	3.09 ± 0.061
TGWISKCTAEGIKVSLL [RPC25]	2.9 ± 0.14	3.12 ± 0.15	2.66 ± 0.08	2.95 ± 0.15
YRFFKKISEDPVKALNE [SNF12]	3.5 ± 0.19	3.68 ± 0.2	2.8 ± 0.23	3.52 ± 0.086
RILAMCVKNHGQSSSIQ [YCS4]	2.11 ± 0.055	1.79 ± 0.051	2.13 ± 0.057	1.94 ± 0.054
KLTILQEGIEAIATTVI [RET1]	2.79 ± 0.069	2.32 ± 0.06	2.51 ± 0.082	2.78 ± 0.037
PNFEASFVHGVVGQLFQ [SMC2]	1.61 ± 0.098	2.56 ± 0.11	2.58 ± 0.1	3.18 ± 0.12
HARARGPRAVLTRQPTE [RET1]	3.28 ± 0.11	3.31 ± 0.068	3.08 ± 0.065	3.26 ± 0.06
PDLNIDRNNSTNQIFQS [SIN4]	3.1 ± 0.29		2.7 ± 0.21	2.19 ± 0.15
ATGKKSRGINKGHKFNN [RPL15A]	2.5 ± 0.24	2.69 ± 0.13	2.34 ± 0.12	2.17 ± 0.13
LRAHTDDSRNPDCKIKI [PRE2]	2.86 ± 0.073	2.92 ± 0.12	2.86 ± 0.085	2.77 ± 0.11
DHINGSGKRKPTKAAQR [GAL11]	2.3 ± 0.14	2.81 ± 0.094	3.1 ± 0.16	3.17 ± 0.1
DEDIITIFKYLTDKDAF [CDC53]	2.91 ± 0.14	3.15 ± 0.11	3.21 ± 0.061	3.19 ± 0.059
KPSPIDSGIGSNGSGIV [CSL4]	3.17 ± 0.06	2.89 ± 0.042	2.94 ± 0.04	3.1 ± 0.046
LLFEDLFKKFNNDFKLS [RET1]		1.39 ± 0.23		2.73 ± 0.13
VKEYQLRDRNFSATGNF [RPL11A]	3.29 ± 0.097	3.27 ± 0.1	2.85 ± 0.28	3.22 ± 0.089
LLKDIFANNLKSAISNN [SIR4]	2.46 ± 0.044	2.48 ± 0.042	2.44 ± 0.043	2.44 ± 0.037
DNLGQTKIIMATNRPDT [RPT4]	2.76 ± 0.084	2.56 ± 0.1	2.79 ± 0.079	2.67 ± 0.079
YEDSGSTYKHDRGIANI [SRB4]	3.29 ± 0.13	3.29 ± 0.14	3.25 ± 0.097	3.36 ± 0.096
ENRFQDTLLLLPTDGGL [POP4]	1.46 ± 0.096	2.12 ± 0.085	1.77 ± 0.11	2.44 ± 0.082
